Test results as given in patent US10064926B2, “Peptides and combination of peptides for use in immunotherapy against hepatocellular carcinoma (HCC) and other cancers” (Immatics biotechnologies GmbH, priority 2014, dated 2018).

Target: HLA-A*02 (Homo sapiens, UniProt P04439, D140Y/D185E/D98H/E176V/E277Q/G131W/G231S/I119V/I121R/I166T/I218V/N151K/N90K/P208A/P217A/Q86G/Q94H/R138H/R169H)
Experiment: UV-ligand exchange / peptide binding to MHC class I (beta2m ELISA)
Settings: Table 10B; peptide exchange yield; HLA-A*02 peptides
Description: Candidate peptides for T cell based therapies according to the present invention were further tested for their MHC binding capacity (affinity). The individual peptide-MHC complexes were produced by UV-ligand exchange, where a UV-sensitive peptide is cleaved upon UV-irradiation, and exchanged with the peptide of interest as analyzed. Only peptide candidates that can effectively bind and stabilize the peptide-receptive MHC molecules prevent dissociation of the MHC complexes. To determine the yield of the exchange reaction, an ELISA was performed based on the detection of the light chain (β2m) of stabilized MHC complexes. The assay was performed as generally described in Rodenko et al. (Rodenko B, Toebes M, Hadrup S R, van Esch W J, Molenaar A M, Schumacher T N, Ovaa H. Generation of peptide-MHC class I complexes through UV-mediated ligand exchange. Nat Protoc. 2006; 1(3):1120-32).
96 well MAXISorp plates (NUNC) were coated over night with 2 ug/ml streptavidin in PBS at room temperature, washed 4× and blocked for 1 h at 37° C. in 2% BSA containing blocking buffer. Refolded HLA-A*0201/MLA-001 monomers served as standards, covering the range of 15-500 ng/ml. Peptide-MHC monomers of the UV-exchange reaction were diluted 100 fold in blocking buffer. Samples were incubated for 1 h at 37° C., washed four times, incubated with 2 ug/ml HRP conjugated anti-β2m for 1 h at 37° C., washed again and detected with TMB solution that is stopped with […]. Absorption was measured at 450 nm. Candidate peptides that show a high exchange yield (preferably higher than 50%, most preferred higher than 75%) are generally preferred for a generation and production of antibodies or fragments thereof, and/or T cell receptors or fragments thereof, as they show sufficient avidity to the MHC molecules and prevent dissociation of the MHC complexes.

| Substance | Peptide exchange (MHC class I binding score) |
| --- | --- |
| 78 (LLIDDEYKV; listed as Homo sapiens) [compound 78] | “+++” (≥50 = +++) |
| 81 (NLASFIEQVAV; listed as Homo sapiens) [compound 81] | “+++” (≥50 = +++) |
| 83 (QLHDFVMSL; listed as Homo sapiens) [compound 83] | “++++” (≥75% = ++++) |
| 84 (QLTPVLVSV; listed as Homo sapiens) [compound 84] | “+++” (≥50 = +++) |
| 86 (RLAAFYSQV; listed as Homo sapiens) [compound 86] | “+++” (≥50 = +++) |
| 87 (RLFEENDVNL; listed as Homo sapiens) [compound 87] | “+++” (≥50 = +++) |
| 89 (RLIEEIKNV; listed as Homo sapiens) [compound 89] | “++” (≥20% = ++) |
| 90 (RLLDVLAPLV; listed as Homo sapiens) [compound 90] | “+++” (≥50 = +++) |
| 92 (RLPPDTLLQQV; listed as Homo sapiens) [compound 92] | “+++” (≥50 = +++) |
| 93 (RLYTMDGITV; listed as Homo sapiens) [compound 93] | “++” (≥20% = ++) |
| 95 (SICNGVPMV; listed as Homo sapiens) [compound 95] | “+++” (≥50 = +++) |
| 96 (SLLEEPNVIRV; listed as Homo sapiens) [compound 96] | “++++” (≥75% = ++++) |
| 98 (SLLSPEHLQYL; listed as Homo sapiens) [compound 98] | “+++” (≥50 = +++) |
| 99 (SLSAFLPSL; listed as Homo sapiens) [compound 99] | “++++” (≥75% = ++++) |
| 100 (SLVGDIGNVNM; listed as Homo sapiens) [compound 100] | “++” (≥20% = ++) |
| 101 (SLWEGGVRGV; listed as Homo sapiens) [compound 101] | “+++” (≥50 = +++) |
| 102 (SLWSVARGV; listed as Homo sapiens) [compound 102] | “+++” (≥50 = +++) |
| 104 (SVWFGPKEV; listed as Homo sapiens) [compound 104] | “+++” (≥50 = +++) |
| 105 (SVYDGKLLI; listed as Homo sapiens) [compound 105] | “++++” (≥75% = ++++) |

| Substance | Peptide exchange (MHC class I binding score) |
| --- | --- |
| 107 (TLGQFYQEV; listed as Homo sapiens) [compound 107] | “++++” (≥75% = ++++) |
| 108 (TLLKKISEA; listed as Homo sapiens) [compound 108] | “+++” (≥50 = +++) |
| 111 (TVMDIDTSGTFNV; listed as Homo sapiens) [compound 111] | “+++” (≥50 = +++) |
| 114 (VLSQVYSKV; listed as Homo sapiens) [compound 114] | “+++” (≥50 = +++) |
| 115 (VVLDDKDYFL; listed as Homo sapiens) [compound 115] | “+++” (≥50 = +++) |
| 118 (YLDDEKNWGL; listed as Homo sapiens) [compound 118] | “+++” (≥50 = +++) |
| 121 (YLITGNLEKL; listed as Homo sapiens) [compound 121] | “+++” (≥50 = +++) |
| 122 (YLSQAADGAKVL; listed as Homo sapiens) [compound 122] | “++” (≥20% = ++) |
| 123 (YLWDLDHGFAGV; listed as Homo sapiens) [compound 123] | “+++” (≥50 = +++) |
| 124 (LLIDVVTYL; listed as Homo sapiens) [compound 124] | “++++” (≥75% = ++++) |
| 125 (ALYGRLEVV; listed as Homo sapiens) [compound 125] | “++++” (≥75% = ++++) |
| 127 (VLIGSNHSL; listed as Homo sapiens) [compound 127] | “++++” (≥75% = ++++) |
| 133 (ALLEMDARL; listed as Homo sapiens) [compound 133] | “+++” (≥50 = +++) |
| 135 (ALLGKIEKV; listed as Homo sapiens) [compound 135] | “+++” (≥50 = +++) |
| 137 (ALPTVLVGV; listed as Homo sapiens) [compound 137] | “++++” (≥75% = ++++) |
| 140 (ALTSISAGV; listed as Homo sapiens) [compound 140] | “++++” (≥75% = ++++) |
| 142 (AVIGGLIYV; listed as Homo sapiens) [compound 142] | “++++” (≥75% = ++++) |
| 145 (FLIAEYFEHV; listed as Homo sapiens) [compound 145] | “++” (≥20% = ++) |
| 146 (FLWTEQAHTV; listed as Homo sapiens) [compound 146] | “++” (≥20% = ++) |

More lines, now with the values ahead:

| Peptide exchange (MHC class I binding score) | Substance |
| --- | --- |
| “++++” (≥75% = ++++) | 80 (LLYEGKLTL; listed as Homo sapiens) [compound 80] |
| “+++” (≥50 = +++) | 82 (NVFDGLVRV; listed as Homo sapiens) [compound 82] |
| “+++” (≥50 = +++) | 85 (RILPKVLEV; listed as Homo sapiens) [compound 85] |
| “++” (≥20% = ++) | 88 (RLIDRIKTV; listed as Homo sapiens) [compound 88] |
| “+++” (≥50 = +++) | 91 (RLPDIPLRQV; listed as Homo sapiens) [compound 91] |
| “+++” (≥50 = +++) | 94 (RMSDVVKGV; listed as Homo sapiens) [compound 94] |
| “++++” (≥75% = ++++) | 97 (SLLPQLIEV; listed as Homo sapiens) [compound 97] |
| “+++” (≥50 = +++) | 103 (SMGDHLWVA; listed as Homo sapiens) [compound 103] |
| “+++” (≥50 = +++) | 106 (TLAAIIHGA; listed as Homo sapiens) [compound 106] |
| “+++” (≥50 = +++) | 109 (TLYALSHAV; listed as Homo sapiens) [compound 109] |
| “++++” (≥75% = ++++) | 110 (TVGGSEILFEV; listed as Homo sapiens) [compound 110] |
| “++++” (≥75% = ++++) | 112 (VLGEVKVGV; listed as Homo sapiens) [compound 112] |
| “++++” (≥75% = ++++) | 113 (VLMDKLVEL; listed as Homo sapiens) [compound 113] |
| “+++” (≥50 = +++) | 117 (YAFPKSITV; listed as Homo sapiens) [compound 117] |
| “+++” (≥50 = +++) | 119 (YLDKNLTVSV; listed as Homo sapiens) [compound 119] |
| “++” (≥20% = ++) | 120 (YLGEEYVKA; listed as Homo sapiens) [compound 120] |
| “+++” (≥50 = +++) | 126 (TLLDSPIKV; listed as Homo sapiens) [compound 126] |
| “++++” (≥75% = ++++) | 128 (GLAFSLNGV; listed as Homo sapiens) [compound 128] |
| “+++” (≥50 = +++) | 129 (SQADVIPAV; listed as Homo sapiens) [compound 129] |
| “++++” (≥75% = ++++) | 130 (ALDAGAVYTL; listed as Homo sapiens) [compound 130] |
| “+++” (≥50 = +++) | 131 (ALDSGAFQSV; listed as Homo sapiens) [compound 131] |
| “+++” (≥50 = +++) | 132 (ALHEEVVGV; listed as Homo sapiens) [compound 132] |
| “++++” (≥75% = ++++) | 134 (ALLETNPYLL; listed as Homo sapiens) [compound 134] |
| “+++” (≥50 = +++) | 136 (ALLNQHYQV; listed as Homo sapiens) [compound 136] |
| “++++” (≥75% = ++++) | 138 (ALSQVTLLL; listed as Homo sapiens) [compound 138] |
| “+++” (≥50 = +++) | 139 (ALSSKPAEV; listed as Homo sapiens) [compound 139] |
| “++++” (≥75% = ++++) | 141 (AMGEKSFSV; listed as Homo sapiens) [compound 141] |
